For 72 sequences, protein stability index results are on record in the supplement of paper PMC10567573.

± gives the standard deviation.

This series can be described thus: protein stability index of a GFP-peptide fusion (GPS, HEK-293T) (PSI 1-6); higher = more stable.
[1] abbreviates: treatment: DMSO, c terminus: a fixed tail appended.
The mark [2] stands for this setting: treatment: MLN4924 1 uM, 8 h, c terminus: a fixed tail appended.
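Note: 24-mer peptide tiles fused after GFP, lentivirally expressed, FACS-sorted into six equal bins by GFP/DsRed ratio, decoded by Illumina sequencing, PSI is the read-weighted mean bin number.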

For the sequence SGYDGTFLFQKPGDKYEHHSYMGM [POMT2], the protein stability index reads like this: under setting [1], 2.68 ± 0.23; under setting [2], 2.5 ± 0.5.

As to SIPQSSLEPLKAIIQYRLPMKKNN [ACSBG2], the protein stability index reads like this: under setting [1], 3.48 ± 0.14; under setting [2], 3.49 ± 0.3.

For the sequence SKAWHQKSHFQNSREWSGKEKWWD [PBXIP1], the protein stability index was 2.94 ± 0.04 under setting [1] and 3.2 ± 0.34 under setting [2].

In turn, SKDCKPPVYLLLELEDKDGLQSAQ [MYBL2] yielded a protein stability index under setting [1] of 3.93 ± 0.18 and a protein stability index under setting [2] of 3.87 ± 0.12.

Regarding SKIPHILKEMYDADLLEEEVIISW [EIF5], the protein stability index by setting is: under setting [1], 2.19 ± 0.38; under setting [2], 2.4 ± 0.24.

As to SKQLTLEQLRREKIDLENTLEQEQ [CCDC6], the protein stability index was determined as 5.43 ± 0.26 under setting [1] and 5.2 ± 0.11 under setting [2].

As for SKRLAVPCKLEKMRILAHGELVLA [TLE6], the protein stability index under setting [1] was 2.26 ± 0.49 and the protein stability index under setting [2] worked out at 2.35 ± 0.45.

As to SKYENYFSASERLSLKRELSWYRG [HESX1], the protein stability index was 2.44 ± 0.26 under setting [1] and 2.31 ± 0.33 under setting [2].

For SLDKRQGEGLRIYWGSPEEQSLLS [TPRG1], the protein stability index by setting is: under setting [1], 2.77 ± 0.15; under setting [2], 2.85 ± 0.39.

As for SLEIEEKINKIRWLPQQNAAYFLL [PPP2R2B], the protein stability index was 2.34 ± 1.1 under setting [1] and 2.01 ± 1.1 under setting [2].

Take SLQLVFGIELMEVDPIGHLYIFAT [MAGEA3]: the protein stability index runs as follows: under setting [1], 2.91 ± 0.23; under setting [2], 2.74 ± 0.76.

For the sequence SLQQMQELSNILNLSYKQVKTWFQ [NANOGP8], the protein stability index is 2.27 ± 0.34 under setting [1] and 2.16 ± 0.12 under setting [2].

In the case of SLRSSSSKLAQLTLEQILEHLDNL [INTS3], the protein stability index was 2.31 ± 0.2 under setting [1] and 2.55 ± 0.26 under setting [2].

For SLRTLKPEGNILRDRFKSFQRRNM [NOP53], the protein stability index runs as follows: under setting [1], 3.22 ± 0.23; under setting [2], 3.21 ± 0.21.

Regarding SMDIARGLMVTCGTDRIVKIWDMT [WDFY1], the protein stability index is, setting by setting: under setting [1], 2.25 ± 0.43; under setting [2], 1.92 ± 0.33.

As for SMHKYQPRLHIVKADENNGFGSKN [TBX5], the protein stability index by setting is: under setting [1], 3.94 ± 0.4; under setting [2], 4.24 ± 0.33.

Consider SNQEVLQSCLLVIFATKPHVLPAV [PYCR3], for which the protein stability index is, setting by setting: under setting [1], 3.34 ± 0.4; under setting [2], 3.01 ± 0.34.

For the sequence SPGHSSAGQEGEDTLRRRLLAPEA [TOR1AIP2], the protein stability index under setting [1] worked out at 4.29 ± 0.052 and the protein stability index under setting [2] amounted to 4.51 ± 0.27.

Consider SPSPSSRVTVSRASSSRSVRTTRG [LMNB1], for which the protein stability index was found to be 5.08 ± 0.27 under setting [1] and 5.12 ± 0.09 under setting [2].

Turning to SQEEAQGLPSSELDAVENQLKWAS [ZNF24], the protein stability index is, setting by setting: under setting [1], 5.32 ± 0.2; under setting [2], 5.08 ± 0.38.

SQIQYMNTVVSTYVTTNVSLIPPR [TMEM106C]: the protein stability index reads like this: under setting [1], 2.12 ± 0.22; under setting [2], 2.07 ± 0.12.

Turning to SQLPQVLHVSLGQKLVAAYVLGLL [MOSPD3], the protein stability index under setting [1] came to 3.26 ± 0.94 and the protein stability index under setting [2] was 2.75 ± 1.2.

SRKNATQPPNAEEESGSSSASEEE [INTS3]: the protein stability index came to 5.53 ± 0.12 under setting [1] and 5.71 ± 0.14 under setting [2].

With SRNFIERNHMENGGDHRYVNNYTN [TRIM29], the protein stability index under setting [1] was determined as 3.46 ± 0.22 and the protein stability index under setting [2] turned out to be 3.57 ± 0.18.

As for SRPNGTSAMLLVTLGKVLKVIVVM [MED27], the protein stability index runs as follows: under setting [1], 2.88 ± 0.46; under setting [2], 2.93 ± 0.68.

As to SRREREPEPPAAVDFLEPDSGTCP [FCHO1], the protein stability index was 5.43 ± 0.22 under setting [1] and 5.44 ± 0.33 under setting [2].

SRSNNMGIVGGFTQMIREGGARSL [SLC25A25]: the protein stability index reads like this: under setting [1], 3.17 ± 0.27; under setting [2], 3.47 ± 0.18.

As to SSATTYFWYREALDISDSISESGG [SLC6A17], the protein stability index under setting [1] stood at 2.62 ± 0.46 and the protein stability index under setting [2] was determined as 2.73 ± 0.34.

For the sequence SSISSTSNEQLKVTQEPRAKKGRR [ZMYND11], the protein stability index runs as follows: under setting [1], 5.24 ± 0.48; under setting [2], 5.45 ± 0.077.

As to SSLTADLLSVDAFAAPSPATTASP [SNAP91], the protein stability index reads like this: under setting [1], 4.65 ± 0.19; under setting [2], 4.7 ± 0.083.

For SSNLGQHQRIHTGEKPFECNECGK [ZNF232], the protein stability index was determined as 4.78 ± 0.22 under setting [1] and 5.01 ± 0.19 under setting [2].

In the case of SSSFTSIASEWFLIANRSYKVSAA [SLC22A15], the protein stability index was determined as 2.26 ± 0.47 under setting [1] and 2.42 ± 0.31 under setting [2].

As to SSSLAQHQRKHAGEKPFECRQRLI [ZNF8], the protein stability index reads like this: under setting [1], 3.74 ± 0.18; under setting [2], 3.69 ± 0.17.

Turning to STDSGFCLDSPGPLDSKENLENPM [CDC25A], the protein stability index was 5.32 ± 0.12 under setting [1] and 5.27 ± 0.14 under setting [2].

As for STKMDCVWSNWKSQAIDLLYWRDI [RTN1], the protein stability index stood at 2.37 ± 0.34 under setting [1] and 2.27 ± 0.28 under setting [2].

STPAPAERPLPNPEGLDSDFLAVL [SLA] returned a protein stability index under setting [1] of 4.29 ± 0.35 and a protein stability index under setting [2] of 4.26 ± 0.21.

Take STPRCAQQAALPRLSRRMASQHSY [CBY2]: the protein stability index is, setting by setting: under setting [1], 2.3 ± 0.29; under setting [2], 2.37 ± 0.079.

The sequence STSFMSSSSSSSSWLTRRAIRPEN [EMD] showed a protein stability index under setting [1] of 3.39 ± 0.35 and a protein stability index under setting [2] of 3.38 ± 0.16.

As to SVGHNWRKRMGTRRGRHEQSPTSR [C22orf15], the protein stability index was 4.32 ± 0.065 under setting [1] and 4.49 ± 0.25 under setting [2].

As to SVTGLDPEARYLFLLDVIPVDGAR [TBX6], the protein stability index amounted to 2.15 ± 0.47 under setting [1] and 2 ± 0.13 under setting [2].

Consider SVTLEDVTPKKSPPPKTNLTPGQS [FAN1], for which the protein stability index worked out at 5.11 ± 0.18 under setting [1] and 5.24 ± 0.34 under setting [2].

For SWNVAVKFLMARKFDVLRAIELFH [PTPN9], the protein stability index is, setting by setting: under setting [1], 2.18 ± 0.25; under setting [2], 2.31 ± 0.6.

Turning to SYDELCFLEQRPQSPTLEFLLRNS [EDARADD], the protein stability index reads like this: under setting [1], 3.1 ± 0.2; under setting [2], 3 ± 0.1.

For TAAFTTAKAAALSTKTPAPCSEFM [SPAG8], the protein stability index stood at 3.67 ± 0.14 under setting [1] and 3.84 ± 0.24 under setting [2].

In the case of TAGPITGLVYRLNRFRVEISFHFE [TRIM43], the protein stability index was 3.02 ± 0.7 under setting [1] and 3.2 ± 0.52 under setting [2].

In the case of TEDLCEKPDDEVKETAHDLDVKSP [RIPK4], the protein stability index reads like this: under setting [1], 5.8 ± 0.26; under setting [2], 5.62 ± 0.27.

Consider TEDVNTLDSEKRTPLHVAAFLGDA [ANKRD44], for which the protein stability index is, setting by setting: under setting [1], 4.72 ± 0.3; under setting [2], 4.74 ± 0.11.

As to TEGVTQLKLTVVEDVTVGRRQAVA [ZFYVE21], the protein stability index is 4.07 ± 0.18 under setting [1] and 4.12 ± 0.19 under setting [2].

Sequence TENRGNEKEFMKGNQLISNNIKFK [CLCN6] gave a protein stability index under setting [1] of 4.43 ± 0.28 and a protein stability index under setting [2] of 4.52 ± 0.11.

As for TGGADAYYEMGIHCWDVAGAGIIV [IMPA1], the protein stability index reads like this: under setting [1], 2.83 ± 0.79; under setting [2], 2.97 ± 0.85.

On to TGSYNNFFRMFDRNTKRDVTLEAS [PPP2R2B], for which the protein stability index is, setting by setting: under setting [1], 3.1 ± 0.26; under setting [2], 3.47 ± 0.33.

With THGVGLVLRVEQQPHLPLLSTLAG [SCNN1D], the protein stability index under setting [1] is 2.12 ± 0.23 and the protein stability index under setting [2] came out at 2.17 ± 0.15.

As for THLLKQGRSSMGTGLSGGKRPSQE [CRY1], the protein stability index by setting is: under setting [1], 4.35 ± 0.18; under setting [2], 4.53 ± 0.33.

Regarding TIEERVNILFDFVKKKKEEGVIDS [EIF5], the protein stability index is, setting by setting: under setting [1], 3.68 ± 0.065; under setting [2], 3.39 ± 0.29.

Consider TIHGLIYNALKLFMEMNQKLFDDC [PPP2R5C], for which the protein stability index turned out to be 2.93 ± 0.33 under setting [1] and 2.89 ± 0.45 under setting [2].

For TIRSGISPNLNVVDGRLTYPTCGI [SASS6], the protein stability index reads like this: under setting [1], 2.86 ± 0.42; under setting [2], 3.02 ± 0.26.

In the case of TIVEEVQDGKVISSREQVHQTTR [KRT17], the protein stability index is 5.03 ± 0.23 (treatment: DMSO, c terminus: native) and 5.08 ± 0.25 (treatment: MLN4924 1 uM, 8 h, c terminus: native).

Take TKKHIPYREHKSLTGTARYMSINT [CSNK1G1]: the protein stability index was 2.51 ± 0.15 under setting [1] and 2.65 ± 0.23 under setting [2].

For TKRSTLIISGVSKVPIAQDELALS [C2CD2L], the protein stability index is, setting by setting: under setting [1], 3.16 ± 0.17; under setting [2], 3.14 ± 0.19.

Turning to TLDGYGIHPKSIDLDNYFTARRLL [NFE2L1], the protein stability index is, setting by setting: under setting [1], 2.37 ± 0.41; under setting [2], 2.28 ± 0.26.

In the case of TLEGHQRAIMAHMTVEEIYKDRQK [FLOT1], the protein stability index worked out at 4.52 ± 0.13 under setting [1] and 4.7 ± 0.19 under setting [2].

In the case of TLGSSFIPGEHFWLLLLTRGLVGV [SPNS1], the protein stability index was 3.15 ± 1.4 under setting [1] and 3.21 ± 0.84 under setting [2].

For TLHNLSHHREGLLAIFKSGGIPAL [CTNNB1], the protein stability index was determined as 2.4 ± 0.11 under setting [1] and 2.38 ± 0.24 under setting [2].

TLRQKTVDWRRVSRLQEDPEGTEN [SLA] gave a protein stability index under setting [1] of 4.87 ± 0.27 and a protein stability index under setting [2] of 4.79 ± 0.52.

With TLSWYFLLCVNYFFYGETVTDYFF [CDS2], the protein stability index is, setting by setting: under setting [1], 3.35 ± 0.64; under setting [2], 3.48 ± 0.26.

On to TLYRNRSNLETIFRIIDSDHSGFI [PPEF2], for which the protein stability index worked out at 2.06 ± 0.4 under setting [1] and 1.99 ± 0.099 under setting [2].

Turning to TMLIVHHRTHTGERPYGCDECEKA [ZNF649], the protein stability index reads like this: under setting [1], 3.75 ± 0.32; under setting [2], 3.7 ± 0.49.

In the case of TNFEGPPRLKEDQPWMVIEGIRQT [FSD1], the protein stability index reads like this: under setting [1], 3.5 ± 0.082; under setting [2], 3.75 ± 0.33.

As for TPAEGDTEEDDGFVDILESDLKDD [CDC25B], the protein stability index reads like this: under setting [1], 5.34 ± 0.3; under setting [2], 5.62 ± 0.24.

For the sequence TPTSPECDYSQYFKTIEELRDKIM [KRT15], the protein stability index worked out at 3.4 ± 0.27 under setting [1] and 3.6 ± 0.43 under setting [2].

With TQSVMGFDPLPPSDTIYSYVRPER [TCF25], the protein stability index under setting [1] is 3.52 ± 0.32 and the protein stability index under setting [2] turned out to be 3.73 ± 0.12.

Take TQVKVVKFSYMWTINNFSFCREEM [SPOPL]: the protein stability index is 2.65 ± 0.92 under setting [1] and 2.77 ± 0.72 under setting [2].
